Results on 44 sequences are retold here after the Immune Epitope Database (IEDB).

In test [1] the target is HLA-B*18:01. Briefly: IEDB peptide-MHC binding, purified MHC/direct/fluorescence; filed as Kd, often an IC50 or EC50 that approximates it; ≥ and ≤ were set here for values at or beyond the usual limits of such assays.
Test [2] has as its target HLA-B*40:01. The test is described as above.
The target in test [3] is HLA-B*48:01. The test is described as above.
Test [4] concerns the target HLA-A*02:01. Briefly: IEDB peptide-MHC binding, purified MHC/competitive/radioactivity; filed as Kd, often an IC50 or EC50 that approximates it; ≥ and ≤ were set here for values at or beyond the usual limits of such assays.
The target of test [5] is HLA-A*02:02. Described as above.
Test [6] concerns the target HLA-A*02:03. The test is described as above.
Test [7] deals with HLA-A*02:06. Described as above.
Test [8] deals with HLA-A*03:01. The description is as above.
The target of test [9] is HLA-A*11:01. The test is described as above.
The target of test [10] is HLA-A*31:01. The test is described as above.
Test [11] has as its target HLA-A*33:01. The test is described as above.
The target in test [12] is HLA-A*68:01. Described as above.
Test [13] has as its target HLA-A*68:02. The description is as above.
Test [14] concerns the target HLA-B*07:02. Described as above.
Test [15] deals with HLA-B*35:01. The test is described as above.
Test [16] addresses HLA-B*51:01. The test is described as above.
Test [17] addresses HLA-B*53:01. Described as above.
The target in test [18] is HLA-B*54:01. Described as above.
For test [19], the target named is HLA-A*26:01. Kind of test: IEDB peptide-MHC binding, purified MHC/direct/fluorescence; filed as Kd, often an IC50 or EC50 that approximates it; ≥ and ≤ were set here for values at or beyond the usual limits of such assays. The note with it: source organism: Mammarenavirus amapariense.
The target in test [20] is HLA-A*26:01. Kind of test: IEDB peptide-MHC binding, purified MHC/competitive/radioactivity; filed as Kd, often an IC50 or EC50 that approximates it; ≥ and ≤ were set here for values at or beyond the usual limits of such assays.
In test [21] the target is HLA-A*01:01. The test is described as above.
Test [22] has as its target HLA-A*03:01. Kind of test: IEDB peptide-MHC binding, purified MHC/competitive/fluorescence; ≥ and ≤ were set here for values at or beyond the usual limits of such assays.
Test [23] deals with HLA-A*11:01. The test is described as above.
The target in test [24] is HLA-A*02:01. The description is as above.
Test [25] concerns the target HLA-A*24:02. Described as above.
In test [26] the target is HLA-A*29:02. Kind of test: IEDB peptide-MHC binding, purified MHC/competitive/fluorescence; filed as Kd, often an IC50 or EC50 that approximates it; ≥ and ≤ were set here for values at or beyond the usual limits of such assays.
The target of test [27] is HLA-A*24:03. Kind of test: IEDB peptide-MHC binding, purified MHC/direct/fluorescence; filed as Kd, often an IC50 or EC50 that approximates it; ≥ and ≤ were set here for values at or beyond the usual limits of such assays. The note with it: source organism: Amur virus.
Test [28] deals with HLA-B*44:02. The description is as above. Conditions: source organism: Influenza A virus (A/chicken/CA/375TR/2002(H6N2)).
For test [29], the target named is HLA-B*08:01. Described as above. The note with it: source organism: Yersinia pestis CA88-4125.
Where [30] appears, read: source organism: Burkholderia ambifaria AMMD.
Where [31] appears, read: source organism: Francisella tularensis subsp. holarctica LVS.
Where [32] appears, read: source organism: Vaccinia virus WR.
Where [33] appears, read: source organism: Dengue virus 2 Jamaica/1409/1983.
Setting [34] is: source organism: Dengue virus 4 Philippines/H241/1956.
Where [35] appears, read: source organism: Dengue virus 3 Martinique/1243/1999.
[36] abbreviates: source organism: Zaire ebolavirus.
[37] abbreviates: source organism: Sudan ebolavirus.
[38] abbreviates: source organism: Dengue virus 1 Brazil/97-11/1997.
Where [39] appears, read: source organism: Vaccinia virus Copenhagen.
Where [40] appears, read: source organism: Trypanosoma cruzi.
The mark [41] stands for this setting: source organism: Influenza A virus (A/chicken/CA/375TR/2002(H6N2)).
The mark [42] stands for this setting: source organism: Hepacivirus hominis.
[43] abbreviates: source organism: SARS coronavirus Tor2.

Usually Kd stands for the equilibrium constant for the complex coming apart. Turning to AELHAKGAY, the results for the Kd in test [1] (setting [30]) and in test [2] (setting [30]) were 1.12 µM and at least 20 µM, respectively.

For the sequence AEVCAHHLF, the Kd came out at 0.0036 µM in test [1] (setting [31]) and 0.0035 µM in test [2] (setting [31]).

AEWGWTATM: the Kd in test [3] (source organism: Giardia lamblia ATCC 50803) was at least 20 µM.

For the sequence AFVRFSTDK, the Kd is at least 78.1 µM in [4] (setting [32]); at least 77.8 µM in [5] (setting [32]); at least 78.1 µM in test [6] (setting [32]); at least 77.1 µM in [7] (setting [32]); at least 25.4 µM in test [8] (setting [32]); 8.6 µM in test [9] (setting [32]). The Kd in [10] (setting [32]) was 3.1 µM; in test [11] (setting [32]) it was at least 77.7 µM; in test [12] (setting [32]), at least 57.7 µM; in test [13] (setting [32]) it was at least 76.9 µM; in [14] (setting [32]), at least 77.5 µM; in [15] (setting [32]), at least 33.9 µM. For the same sequence, the Kd in test [16] (setting [32]) is at least 77.5 µM; in test [17] (setting [32]) it was at least 78.2 µM; in test [18] (setting [32]) it was at least 78.1 µM.

With CSAVPSHWV, the Kd in [13] (setting [33]) came to 0.00921 µM.

Regarding DEYQGNHMF, in test [1] (source organism: Vibrio parahaemolyticus), the Kd is 0.0006 µM.

In the case of EKPGNRNPY, the Kd in [19] turned out to be 2.78 µM.

With ETALMVIGM, the Kd was found to be 0.308 µM in test [20] (setting [34]) and 0.0105 µM in [13] (setting [34]).

As for ETFSMGLLCL, the Kd in test [21] (setting [34]) came to 7.33 µM; in [20] (setting [34]), 0.289 µM; in test [13] (setting [34]) it was 0.00659 µM.

On to EVLTLATGPV, for which the Kd in [13] (setting [34]) stood at 0.0235 µM.

For the sequence FTILALFLA, the Kd in test [7] (setting [35]) is 0.000746 µM; in test [13] (setting [35]), 0.0355 µM.

For orientation: IC50 means the midpoint of a concentration-inhibition curve. Read a low IC50 as greater potency in that assay. Take FTVVSNGAK: the IC50 was 17.7 µM in test [22] (setting [36]) and 1.51 µM in test [23] (setting [36]).

As for GLRKRSRRQ, the IC50 in [22] (setting [37]) is 46.4 µM.

Regarding GLSLLQLPR, the values for the IC50 in [24] (setting [37]), in [22] (setting [37]) and in [23] (setting [37]) were 16.8 µM, 2.19 µM and 3.53 µM, respectively.

GSIGGVFTSV: the dissociation constant (Kd) in test [13] (setting [38]) came out at 0.0201 µM.

For the sequence HSIENSSVNV, in test [13] (setting [33]), the Kd amounted to 0.0309 µM.

With KFYSKISEY, the IC50 in test [22] (source organism: Human papillomavirus 16) turned out to be 3 µM.

Take KLYKNKSKQ: the IC50 was at least 81.8 µM in test [24] (setting [39]), 3.01 µM in [22] (setting [39]) and at least 1360 µM in [23] (setting [39]).

On to LIWTLDANI, for which the IC50 is 0.48 µM in test [24] (setting [37]), at least 166 µM in [23] (setting [37]) and at least 80.4 µM in test [25] (setting [37]).

As for LLPAVSSGK, the IC50 is at least 73.6 µM in [24] (setting [36]), 1.9 µM in [22] (setting [36]), 3.64 µM in test [23] (setting [36]) and at least 79.6 µM in [25] (setting [36]).

Turning to LMDSIFVST, the Kd in test [5] (setting [39]) is 0.000343 µM; in test [6] (setting [39]) it was 0.232 µM; in test [7] (setting [39]) it was 0.0312 µM; in test [8] (setting [39]) it was at least 78 µM; in test [9] (setting [39]), at least 77.9 µM; in test [10] (setting [39]), at least 36 µM. Besides, the Kd in [11] (setting [39]) is at least 55.3 µM; in test [12] (setting [39]) it was at least 77.7 µM; in test [13] (setting [39]), 1.79 µM; in test [14] (setting [39]), at least 77.5 µM; in test [15] (setting [39]), at least 77.4 µM; in [16] (setting [39]) it was at least 77.5 µM. Further, the Kd was at least 78.2 µM in [17] (setting [39]) and 5.2 µM in test [18] (setting [39]).

In [26] (source organism: Sinorhizobium meliloti 1021), LMISGDLPQ had a Kd of 0.0373 µM.

With LVAFLRFLTI, the Kd in [13] (setting [33]) worked out at 0.103 µM.

As for LVGLWGAAAL, the Kd in test [4] (setting [40]) worked out at 0.689 µM; in test [5] (setting [40]), 0.0897 µM; in test [6] (setting [40]) it was 0.0959 µM; in test [7] (setting [40]), 0.397 µM; in test [13] (setting [40]), 5.25 µM.

On to MHTDLELDF, for which, in test [27], the Kd was determined as 4.85 µM.

In test [26] (source organism: Entamoeba histolytica HM-1:IMSS), MTIHFFLNE gave a Kd of 0.192 µM.

Turning to MTTEDMLSV, the Kd in test [21] (setting [38]) amounted to 5.06 µM; in [7] (setting [38]) it was 0.0106 µM; in [20] (setting [38]), 1.26 µM; in test [13] (setting [38]), 0.0106 µM.

With NAICSAVPV, in test [13] (setting [38]), the Kd came to 0.00319 µM.

As to NLPIYSEEIV, in test [13] (source organism: Homo sapiens), the Kd was found to be 0.982 µM.

NTPEGIIPAL: in test [13] (setting [38]), the Kd was found to be 0.0205 µM.

With REITFHGAK, the results for the Kd in test [1] (setting [41]), in test [2] (setting [41]) and in [28] were 1.22 µM, 0.412 µM and at least 20 µM, respectively.

Sequence RKNGGNFLL displayed a Kd in test [3] (source organism: Campylobacter jejuni subsp. jejuni 81116) of 0.145 µM.

In test [23] (source organism: Vaccinia virus), SGTEKEFLR had an IC50 of at least 412 µM.

The sequence SMKTRTAWF had a Kd in [29] of 0.007 µM.

STIGYALKH: the Kd in [26] (source organism: Bacillus anthracis str. CDC 684) worked out at 0.0394 µM.

In [26] (source organism: Cryptosporidium parvum Iowa II), STSDGKHLQ returned a Kd of 0.284 µM.

Turning to TSHNILVEV, the Kd in test [13] (setting [38]) worked out at 0.00742 µM.

Turning to VDFGIIWRY, the Kd in test [26] (source organism: Vibrio cholerae 2740-80) turned out to be 0.1 µM.

For the sequence VLSDFRTWL, the Kd is 0.00178 µM in [4] (setting [42]); 0.00172 µM in test [5] (setting [42]); 0.00718 µM in test [6] (setting [42]); 0.305 µM in [7] (setting [42]); 5.28 µM in test [13] (setting [42]).

Regarding VPLPCQLMYA, the Kd was found to be 7.43 µM in test [14] (setting [32]); 2.33 µM in [15] (setting [32]); 0.621 µM in [16] (setting [32]); 0.46 µM in [17] (setting [32]); 0.000136 µM in test [18] (setting [32]).

As to VPYNMRVIHF, the Kd in [14] (setting [43]) turned out to be 0.149 µM; in test [15] (setting [43]), 1.44 µM; in [16] (setting [43]) it was 5.59 µM; in test [17] (setting [43]), 0.688 µM; in [18] (setting [43]), 0.505 µM.

Take VTGILQLPR: the IC50 in [22] (setting [36]) amounted to 6.83 µM; in test [23] (setting [36]), 0.36 µM.

As for YDPARYPLY, the Kd in test [26] (source organism: Vibrio vulnificus YJ016) turned out to be 0.0305 µM.

Regarding YKLDISEAT, the IC50 in [24] (setting [36]) was at least 158 µM; in [23] (setting [36]), at least 139 µM; in test [25] (setting [36]) it was 29.8 µM.
